Source: patent publication US20130330355A1 (APEXIGEN, published 2013)
Each block holds one binder with its values, some of them ahead of it.

How the values were obtained:
recombinant human IL-1β [1] = biological target: T1, recombinant human IL-1β (human, UniProt P01584 117-269); assay: cell-based or functional assay
recombinant human IL-1β [2] = biological target: T1, recombinant human IL-1β; assay: SPR
Experimental: Antigen binding affinities of anti-IL-1β antibodies were measured by surface Plasmon resonance (SPR).

recombinant human IL-1β [3] = biological target: T1, recombinant human IL-1β; assay: cross-species reactivity assay, antibody titrated on IL-1β of each species, readout OD405nm
monkey IL-1β = monkey IL-1β (monkey); assay: as above
mouse IL-1β = mouse IL-1β (mouse, UniProt P10749 118-269); assay: as above
recombinant human IL-1β [4] = biological target: T1, recombinant human IL-1β; assay: method not given

mouse IL-1β, sequence (P10749 118-269 limits assumed): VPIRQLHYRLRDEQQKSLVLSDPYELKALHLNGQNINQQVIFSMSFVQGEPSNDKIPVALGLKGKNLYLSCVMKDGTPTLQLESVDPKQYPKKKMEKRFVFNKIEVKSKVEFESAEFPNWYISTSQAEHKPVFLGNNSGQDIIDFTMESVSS
monkey IL-1β (monkey), sequence (P48090 117-269): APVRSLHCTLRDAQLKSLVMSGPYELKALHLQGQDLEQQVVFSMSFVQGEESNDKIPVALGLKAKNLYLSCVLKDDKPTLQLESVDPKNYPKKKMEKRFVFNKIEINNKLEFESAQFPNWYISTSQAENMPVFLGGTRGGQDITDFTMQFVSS

IC 50, neutralization of IL-1β-induced TF-1 cell proliferation (recombinant human IL-1β [1]): 0.55 ng/mL
B3: Q34 rabbit anti-IL-1β antibody (antibody, V domains shown)
VH: QSVEESGGRLVTPGTPLILTCTVSGFSLDVYTVTWVRQAPGKGLEWIGYIWSGGSASYASWAKGRFTISKTSTTVDLKISSPTTEDTATYFCARVKMISNIETFDPWGPGTLVTVSS
VL: AYDMTQTPASVEVVVGGTVTIKCQASERIYSGLAWYQQKPGQRPKLLIYRASTLASGVPSRFSGSGSGTEFTLTISDLECADAATYYCHQGVSSSDIDNVFGGGTEVVVK

EC50 (read off the curve) (recombinant human IL-1β [3]): ~600 ng/mL
EC50 (read off the curve) (monkey IL-1β): ~600 ng/mL
binding result (mouse IL-1β): no binding (tested: 10 ug/ml)
Kd (recombinant human IL-1β [4]): 0.199 nM
B4: APX002 (humanized Q26) (antibody, V domains shown)
VH: EVQLVESGGGLVQPGGSLRLSCAVSGFSLDVYTMTWVRQAPGKGLEWIGYIWSGGSASYASWAKGRFTISKDSSKNTVYLQINSLRAEDTAVYFCARVKMISNIETFDPWGPGTLVTVSS
VL: DIQMTQSPSSVSASVGDRVTIKCQASERIYSGLAWYQQKPGKRPKLLIYRASTLASGVPSRFSGSGSGTDFTLTISSLQPEDFATYYCQQGVSSSDIDNVFGGGTKVEIK

Second part, the binder before the results:

B1: Q17 rabbit anti-IL-1β antibody (antibody, V domains shown)
VH: QSVEESGGRLVTPGTPLILTCTVSGFSLDVYTVTWVRQAPGKGLEWIGYIWSGGSASYASWAKGRFTISKTSTTVDLKISSPTTEDTATYFCARVKMISNIETFDPWGPGTLVTVSS
VL: AYDMTQTPASVEVVVGGTVTIKCQASERIYSGLAWYQQKPGQRPKLLIYRASTLASGVPSRFSGSGSGTEFTLTISDLECADAATYYCHQGVSSSDIDNVFGGGTEVVVK
IC 50, neutralization of IL-1β-induced TF-1 cell proliferation (recombinant human IL-1β [1]): 1.13 ng/mL

B2: clone Q26 rabbit anti-IL-1β antibody (antibody, V domains shown)
VH: QSVEESGGRLVTPGTPLILTCTVSGFSLDVYTVTWVRQAPGKGLEWIGYIWSGGSASYASWAKGRFTISKTSTTVDLKISSPTTEDTATYFCARVKMISNIETFDPWGPGTLVTVSS
VL: AYDMTQTPASVEVVVGGTVTIKCQASERIYSGLAWYQQKPGQRPKLLIYRASTLASGVPSRFSGSGSGTEFTLTISDLECADAATYYCHQGVSSSDIDNVFGGGTEVVVK
notes: Recombinant rabbit IgG expressed in 293-6E cells; the rabbit constant regions are not; also called parental rabbit Q26
IC 50, neutralization of IL-1β-induced TF-1 cell proliferation (recombinant human IL-1β [1]): 0.54 ng/mL
Kd (recombinant human IL-1β [2]): 0.199 nM
koff (recombinant human IL-1β [2]): 3.8e-05 s⁻¹
kon (recombinant human IL-1β [2]): 191000 M⁻¹ s⁻¹
